Positions of bridges follow the written chain, without caps; N, C: chain ends.
How the values were obtained:
[1] = molecular target: T1, KDR (VEGFR-2), full-length receptor on cells (human, UniProt P35968 20-1356); experiment: cell-based or functional assay
[2] = molecular target: T1, KDR (VEGFR-2), full-length receptor on …; experiment: competition with 300 pM 125I-VEGF on KDR-transfected 293H cells; peptide 30 µM
Protocol: (§1) Cells were used 24 h after transfection, and to prepare the cells for the assay, they were washed 3 times with room temperature Ml 99 medium and placed in the refrigerator. […] Each dilution was added to three separate wells of mock and KDR transfected cells. Aflter incubating at 4° C. for 2 h, the plates were washed 5 times with cold binding buffer, gently blotted dry and checked under a microscope for cell loss. 100 μL of solubilizing solution (2% Triton X-100, 10% Glycerol, 0.1% BSA) was added to each well and the plates were incubated at room temperature for 30 minutes. The solubilizing solution in each well was mixed by pipeting up and down, and transferred to 1.2 mL tubes. Each well was washed twice with 100 μL of solubilizing solution and the washes were added to the corresponding 1.2 mL tube.

[3] = molecular target: T1, KDR (VEGFR-2), full-length receptor on …; experiment: competition with 300 pM 125I-VEGF on KDR-transfected 293H cells; peptide 0.3 µM
Protocol: as §1

T1 sequence (P35968 20-1356): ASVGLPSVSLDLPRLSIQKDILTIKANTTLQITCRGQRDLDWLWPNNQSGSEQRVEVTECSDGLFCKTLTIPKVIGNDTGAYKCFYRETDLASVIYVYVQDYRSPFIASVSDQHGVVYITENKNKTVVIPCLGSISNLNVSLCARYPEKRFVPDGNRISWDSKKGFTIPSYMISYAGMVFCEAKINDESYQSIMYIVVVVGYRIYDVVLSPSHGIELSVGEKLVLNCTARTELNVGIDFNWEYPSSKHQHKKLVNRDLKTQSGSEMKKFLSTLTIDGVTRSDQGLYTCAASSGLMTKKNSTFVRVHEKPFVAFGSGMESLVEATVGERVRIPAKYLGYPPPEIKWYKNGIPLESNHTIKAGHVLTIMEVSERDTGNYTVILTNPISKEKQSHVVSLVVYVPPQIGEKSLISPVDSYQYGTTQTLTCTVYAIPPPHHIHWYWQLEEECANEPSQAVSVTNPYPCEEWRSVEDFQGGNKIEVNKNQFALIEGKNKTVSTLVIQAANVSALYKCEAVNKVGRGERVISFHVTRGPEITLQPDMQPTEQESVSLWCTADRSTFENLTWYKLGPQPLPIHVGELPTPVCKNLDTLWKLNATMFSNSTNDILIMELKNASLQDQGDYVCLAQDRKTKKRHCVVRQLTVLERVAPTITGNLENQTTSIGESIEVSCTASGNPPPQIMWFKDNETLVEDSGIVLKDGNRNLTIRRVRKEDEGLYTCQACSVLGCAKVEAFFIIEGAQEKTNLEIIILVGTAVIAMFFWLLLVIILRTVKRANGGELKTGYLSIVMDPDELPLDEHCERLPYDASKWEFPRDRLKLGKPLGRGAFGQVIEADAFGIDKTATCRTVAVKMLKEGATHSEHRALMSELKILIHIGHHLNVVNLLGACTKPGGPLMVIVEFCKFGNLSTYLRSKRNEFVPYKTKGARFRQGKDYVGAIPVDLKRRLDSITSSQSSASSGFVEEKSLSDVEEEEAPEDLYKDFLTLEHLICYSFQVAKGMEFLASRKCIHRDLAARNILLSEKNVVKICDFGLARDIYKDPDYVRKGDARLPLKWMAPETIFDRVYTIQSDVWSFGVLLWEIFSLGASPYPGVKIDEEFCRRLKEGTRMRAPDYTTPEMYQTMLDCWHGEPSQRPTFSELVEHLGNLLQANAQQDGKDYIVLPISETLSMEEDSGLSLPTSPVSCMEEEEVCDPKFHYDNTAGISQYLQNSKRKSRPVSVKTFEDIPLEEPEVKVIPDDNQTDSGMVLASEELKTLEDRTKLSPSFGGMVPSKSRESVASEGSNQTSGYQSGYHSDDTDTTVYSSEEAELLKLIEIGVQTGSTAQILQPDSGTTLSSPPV

Binder	IC50, receptor activation assay [1]	inhibition of VEGF-induced KDR phosphorylation [1]	% inhibition of 125I-labeled VEGF binding [2]	% inhibition of 125I-labeled VEGF binding [3]
Ac-GDSRVCWEDSWGGEVCFRYDPGGGK-NH2 (disulfide 6-16 (inferred)) [P6-D]	1 µM	≥ 50 % inhibition at 10 µM	96.3%	52.3%
Ac-AGWIECYHPDGICYHFGTGGGK-NH2 (disulfide 6-13 (inferred)) [P2-D]		≥ 50 % inhibition at 10 µM		
